# Data taken from article PMC6182170.
# Where a chain is given by its changes, count along the chain named.
# Assays:
# Experiment in all cases: EMSA
# Conditions in all cases: EMSA: 20 pM dsRNA, 50 mM KCl, 10 mM Tris-HCl pH 8.0, 10% glycerol, 1 mM MgCl2, 0.5 mM DTT, on ice 30 min; native 6% gel, 0.5x TBE, 4 C
# [1] = target: ADR-1 WT;ADR-2 WT (Caenorhabditis elegans;Caenorhabditis elegans) (UniProt Q9U3D6+Q22618)
# [2] = target: T1, ADR-1 dsRBD1 mutant (ds1) K223E;K224A;K227A (Caenorhabditis elegans) (UniProt Q9U3D6)
# T1 sequence: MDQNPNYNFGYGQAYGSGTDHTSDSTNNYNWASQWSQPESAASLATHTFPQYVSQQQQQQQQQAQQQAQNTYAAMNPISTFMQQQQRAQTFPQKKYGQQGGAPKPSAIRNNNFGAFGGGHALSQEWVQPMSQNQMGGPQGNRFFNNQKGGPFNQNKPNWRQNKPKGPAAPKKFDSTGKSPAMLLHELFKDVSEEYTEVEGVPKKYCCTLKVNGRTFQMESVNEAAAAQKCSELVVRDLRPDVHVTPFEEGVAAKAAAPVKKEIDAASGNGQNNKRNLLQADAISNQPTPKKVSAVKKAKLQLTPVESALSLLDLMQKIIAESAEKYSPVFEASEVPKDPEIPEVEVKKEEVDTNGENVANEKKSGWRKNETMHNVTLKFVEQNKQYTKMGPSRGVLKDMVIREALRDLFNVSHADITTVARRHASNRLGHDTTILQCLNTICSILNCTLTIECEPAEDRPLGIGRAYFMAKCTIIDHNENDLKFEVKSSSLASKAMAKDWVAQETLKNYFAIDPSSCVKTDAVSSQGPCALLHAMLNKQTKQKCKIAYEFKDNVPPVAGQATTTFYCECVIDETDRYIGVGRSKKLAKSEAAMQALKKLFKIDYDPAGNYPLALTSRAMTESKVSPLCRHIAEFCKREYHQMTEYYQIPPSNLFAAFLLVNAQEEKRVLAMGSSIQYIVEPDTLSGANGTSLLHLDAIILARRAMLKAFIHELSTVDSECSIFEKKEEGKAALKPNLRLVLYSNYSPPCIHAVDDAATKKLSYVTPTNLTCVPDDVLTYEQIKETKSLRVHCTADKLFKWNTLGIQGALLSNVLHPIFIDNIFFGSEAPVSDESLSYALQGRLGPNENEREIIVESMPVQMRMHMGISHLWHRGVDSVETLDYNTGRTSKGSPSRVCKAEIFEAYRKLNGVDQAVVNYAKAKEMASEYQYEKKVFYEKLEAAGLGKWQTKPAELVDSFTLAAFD
# [3] = target: T2, ADR-1 dsRBD2 mutant (ds2) K584E;K585A;K588A (Caenorhabditis elegans) (UniProt Q9U3D6)
# T2 sequence: T1 sequence with E223K, A224K, A227K, K584E, K585A, K588A
# Chain of ADR-1 WT;ADR-2 WT (Caenorhabditis elegans;Caenorhabditis elegans) (Q22618 whole entry, one chain of several): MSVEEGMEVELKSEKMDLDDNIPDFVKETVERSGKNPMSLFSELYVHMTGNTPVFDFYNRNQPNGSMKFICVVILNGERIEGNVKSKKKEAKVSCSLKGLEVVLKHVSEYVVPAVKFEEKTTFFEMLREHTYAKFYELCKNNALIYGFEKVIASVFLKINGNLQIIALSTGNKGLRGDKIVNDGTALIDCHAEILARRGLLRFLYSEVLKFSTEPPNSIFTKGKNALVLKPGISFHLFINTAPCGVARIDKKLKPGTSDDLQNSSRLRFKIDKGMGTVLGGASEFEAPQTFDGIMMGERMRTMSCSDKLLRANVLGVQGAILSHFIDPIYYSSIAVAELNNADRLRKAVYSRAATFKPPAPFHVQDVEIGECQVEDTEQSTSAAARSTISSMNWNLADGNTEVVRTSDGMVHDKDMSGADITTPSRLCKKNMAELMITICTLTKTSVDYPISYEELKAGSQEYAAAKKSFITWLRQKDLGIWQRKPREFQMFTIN
sequence,measurement,setting,value
UUAUUAGGUCGGCAAAUAAUUAUUGACGUGUUUUGCCAAUUAACGAUUUUUUGUAAAUUUUAUAUGUGUCUCUUACAGUAAACCGAGAGUGUAUAAAAGCAUAUGAAUAUCAGUUGCUUUGGUCAUCUGAGUAGUAAUACGAUUCGAAAAAAUCGAAAAGUUUUUUUUCCAAUUUUUUGAGUUAGCCGUGAGAGUUG / CAACUCUUCACAGCUAACUCAAAAAAUCGCGAAAAGCAUUUUUCAAAAAAUUUUUGAUUUUUUAGAUUCUUAAUACUACGCAGGUAGCCAAAGUAGCUGAUAUUUUUAUGUUUUCAUACAUUCACAUUUUACUAUAAGACACACAUACAAAAUUUACAAAAAUUGUUAAUUGACAAAAUACGUCAAUAAUUAUUUGUCUACCUAAUAA [lam-2 3'UTR 200 bp dsRNA],Kd,[1],1.5 nM
same,Kd,[2],1.47 nM
same,Kd,[3],0.95 nM
